From patent publication US20040087777A1

Legend:
Assay in all cases: rNET
[1] = biological target: … analog, Residue 7 = S
[2] = biological target: … analog, Residue 5 = W
[3] = biological target: … analog, Residue 6 = P
[4] = biological target: … analog, Residue 5 = E
[5] = biological target: … analog, Residue 6 = I
[6] = biological target: … analog, Residue 4 = W
[7] = biological target: … analog, Residue 5 = L
[8] = biological target: … analog, Residue 4 = M
[9] = biological target: … analog, Residue 7 = V
[10] = biological target: … analog, Residue 6 = L
[11] = biological target: … analog, Residue 5 = T
[12] = biological target: … analog, Residue 5 = M
[13] = biological target: … analog, Residue 4 = I
[14] = biological target: … analog, Residue 6 = M
[15] = biological target: … analog, Residue 6 = A
[16] = biological target: … analog, Residue 7 = Y
[17] = biological target: … analog, Residue 7 = A
[18] = biological target: … analog, Residue 4 = Q
[19] = biological target: … analog, Residue 6 = R
[20] = biological target: … analog, Residue 5 = N
[21] = biological target: … analog, Residue 5 = D
[22] = biological target: … analog, Residue 4 = P
[23] = biological target: … analog, Residue 4 = G
[24] = biological target: … analog, Residue 4 = T
[25] = biological target: … analog, Residue 7 = I
[26] = biological target: … analog, Residue 4 = K
[27] = biological target: … analog, Residue 6 = G
[28] = biological target: … analog, Residue 5 = S
[29] = biological target: … analog, Residue 6 = F
[30] = biological target: … analog, Residue 5 = I
[31] = biological target: … analog, Residue 7 = K
[32] = biological target: … analog, Residue 6 = N
[33] = biological target: … analog, Residue 4 = R
[34] = biological target: … analog, Residue 6 = E
[35] = biological target: … analog, Residue 7 = Q
[36] = biological target: … analog, Residue 5 = A
[37] = biological target: … analog, Residue 6 = Y
[38] = biological target: … analog, Residue 6 = V
[39] = biological target: … analog, Residue 6 = W
[40] = biological target: … analog, Residue 4 = V
[41] = biological target: … analog, Residue 6 = D
[42] = biological target: … analog, Residue 7 = L
[43] = biological target: … analog, Residue 4 = Y
[44] = biological target: … analog, Residue 5 = C
[45] = biological target: … analog, Residue 6 = K
[46] = biological target: … analog, Residue 7 = C
[47] = biological target: … analog, Residue 5 = Q
[48] = biological target: … analog, Residue 7 = F
[49] = biological target: … analog, Residue 4 = L
[50] = biological target: … analog, Residue 4 = S
[51] = biological target: … analog, Residue 7 = R
[52] = biological target: … analog, Residue 7 = M
[53] = biological target: … analog, Residue 4 = A
[54] = biological target: … analog, Residue 5 = P
[55] = biological target: … analog, Residue 7 = W
[56] = biological target: … analog, Residue 6 = Q
[57] = biological target: … analog, Residue 5 = V
[58] = biological target: … analog, Residue 4 = E
[59] = biological target: … analog, Residue 7 = P
[60] = biological target: … analog, Residue 4 = C
[61] = biological target: … analog, Residue 6 = C
[62] = biological target: … analog, Residue 5 = Y
[63] = biological target: … analog, Residue 7 = T
[64] = biological target: … analog, Residue 4 = D
[65] = biological target: … analog, Residue 5 = F
[66] = biological target: … analog, Residue 7 = G
[67] = biological target: … analog, Residue 4 = N

B1: murine monoclonal antibody 3D6 (antibody, mouse IgG2b, V domains shown)
VL: not shown
VH: EVKLVESGGGLVKPGASLKLSCAASGFTFSNYGMSWVRQNSDKRLEWVASIRSGGGRTYYSDNVKGRFTISRENAKNTLYLQMSSLKSEDTALYYCVRYDHYSGSSDYWGQGTTVTVSS
B1 was tested, and the OD [1] was 0.563 OD, the OD [2] was 0.393 OD and the OD [3] was 0.587 OD. It also gave an OD [4] of 0.115 OD, an OD [5] of 0.602 OD and an OD [6] of 0.291 OD. It also gave an OD [7] of 0.517 OD, an OD [8] of 0.549 OD and an OD [9] of 0.563 OD. The OD [10] was 0.584 OD, the OD [11] was 0.53 OD and the OD [12] was 0.418 OD. It also gave an OD [13] of 0.119 OD, an OD [14] of 0.583 OD and an OD [15] of 0.587 OD. It also gave an OD [16] of 0.56 OD, an OD [17] of 0.58 OD and an OD [18] of 0.065 OD. The OD [19] was 0.576 OD, the OD [20] was 0.476 OD and the OD [21] was 0.08 OD. For the same binder, the OD [22] was 0.03 OD, the OD [23] was 0.016 OD and the OD [24] was 0.016 OD. The OD [25] was 0.552 OD, the OD [26] was 0.015 OD and the OD [27] was 0.592 OD. The OD [28] was 0.487 OD, the OD [29] was 0.586 OD and the OD [30] was 0.51 OD. The OD [31] was 0.565 OD, the OD [32] was 0.58 OD and the OD [33] was 0.016 OD. It also gave an OD [34] of 0.579 OD, an OD [35] of 0.563 OD and an OD [36] of 0.275 OD. For the same binder, the OD [37] was 0.595 OD, the OD [38] was 0.588 OD and the OD [39] was 0.576 OD. For the same binder, the OD [40] was 0.213 OD, the OD [41] was 0.584 OD and the OD [42] was 0.566 OD. For the same binder, the OD [43] was 0.529 OD, the OD [44] was 0.359 OD and the OD [45] was 0.585 OD. The OD [46] was 0.559 OD, the OD [47] was 0.388 OD and the OD [48] was 0.546 OD. The OD [49] was 0.559 OD, the OD [50] was 0.026 OD and the OD [51] was 0.551 OD. For the same binder, the OD [52] was 0.562 OD, the OD [53] was 0.016 OD and the OD [54] was 0.093 OD. For the same binder, the OD [55] was 0.547 OD, the OD [56] was 0.57 OD and the OD [57] was 0.493 OD. For the same binder, the OD [58] was 0.016 OD, the OD [59] was 0.582 OD and the OD [60] was 0.02 OD. It also gave an OD [61] of 0.585 OD, an OD [62] of 0.278 OD and an OD [63] of 0.56 OD. It also gave an OD [64] of 0.017 OD, an OD [65] of 0.439 OD and an OD [66] of 0.562 OD. For the same binder, the OD [67] was 0.085 OD.
